Experimental data from patent US20240245805A1 (Orna Therapeutics, Inc., priority 2020, published 2024).

B1: Yancheng osbecks grenadier anchovy picornavirus (nucleic acid)
DNA: CCTTAGGGTCTGGAATGCGTCCTTTCTGGGCACTTCCACAATCCTAAGGTAATTTTCAACGCCAGCGATGGAGCGATATCCAAAGAACCTTTATGTTTTAGTTCGTCTTGTATGTTTATAAAATATAAAATTGGGATTAGCAACCCACAAAAACATTTTTGTTATTCTCACCACATGAGAGGGTGGTTAAACCTCTTCGTAACCTATCTTGCTTGATTGGCTACTTGGGCTAGATTTAGGACAACCTCTTTAGCAAGCCTAAATTACTCCTCGTACTTGCACCTGGTAACAGGCGTACCTGGAGGTTACGGTGGCGCTAACTTGGACTTCTCGTTAATTCGTGCAAGTTTAAATGATGCCTATTTTGAATACAAGAAAGTATGATAGTAACTTAGGGCGTGAAGTTCCGCTTAACATAAGGCAGTATAAGTACTAAGATAAGGTGTAAGACCTACCTTAATAACTGTTGTCTTTTCTCATGGTCTTTCCGTGGGAGCCCTTGCTAGGGGTAAAGTTAAGTATTCTCAAATAATTTTTCATTCAAACTCTTTCTCTCTGTTTT
modifications: lipid formulation; source: /note="Description of Unknown: Yancheng osbecks grenadier anchovy picornavirus sequence"
B2: Grusopivirus B (nucleic acid)
chain: GCCATCCGTAGGTTCTGGTAAGGTTCCATCAACTGTTGGGGCGCTAGTTGCTATGACCGCATTCACGGACGGATGATTTATAGTATCACCCAATCCGGGCACAACTTCTTTAGCCACTTCTTCCACATTACTAAGGGCTCTCTTGCCGAGTTTCAACGTCTAGTCCACGACACGGACCTTCCTACTTTTCTATCTTCTTATTTTCTCTACTAAATTGGTATCTGGTACTGAAGATATGCGGATTGTGATTTTGTGCCTGTCTAAACTAACCCTATTCTAGGGTTAGGTGGGTACCATATACTAATGGTGAACAGGATTACCTATGTATCCATTAGTCCCTATGGATCTGGCGACCCACAAACTCATGTTCATAGAGAGGCTAAGCTGAGTGCTCGCCGAATAAGCATTGCTTCAGGTGCCGACTATTGTCTGGAAACCACTCAGTGATAGCTATAGGGGGGGGCCCCGTAGCATCTGCCTTACTGCCTGATAGGGTGGCGGCTGGTCCATGAACATGCAGTAACCAGTTGACTTGAC
modifications: lipid formulation; Grusopivirus B
B3: Turkey Gallivirus M176 (nucleic acid, listed as Gallivirus sp.)
DNA: CCACTCGCACTTCCTGGATAGTGCGTTAGATATGCCCGACATATCGCTTCCAGGACCAAAGCCCCCCTTTTCTCTTTCCCAACCAGCTTCGCCACTCAAGCTGTAATTCCATGTCCGGTCTTTCCGGCCTTAGTATCATGGAAATGTGGTCGTGCTCAAATGAAATTGAGTTGACATTGATCAATGAAAGTTGCACTGAACTTTGCTAAACTGGCTAGCGCCACCTGGTGTGTGCCGTTGGTCTCCTCACATGGTAACATGTGCCAACGGGCCCGAAAGGCTAGTGGGCAATTACCGCTCCAAGGGAGGGGTACCCACCCCGACCTGAACAGCGGTAATGAAGCTCACCTCCCAGGCTCTGACCCCGAGAAGTTTAGTTATTTAGTAGGTGTAATTAGTACTTGTGATTGGTCAATTTGATAGTAGTTTGAAACGTTATGGATGAATGAGTAGACCCCCTGAAGGTACCCCATTACATGGGATCTGATCAGGGCCACATTCTGCGTGTCTCCCCGCACTTGTGGTTAAAACCATGAAAGTTCATCCCAAACAATCTTTTCCTCTTCTTTTTCTTTTAGTGGTGACAACCTACTGGATTGGTGATTACCAATCTGTACTAGTGTTGTATTAAGACTTGTTGTGTGGAGAAAATGGACTCTTTCAAGAAGATTTTTG
modifications: lipid formulation
B4: Hepatovirus G1 (nucleic acid, listed as Hepatovirus sp.)
DNA: GCAAGGGGTGGTTTTAACCTTGCACGCGTTTACCGTGCGTTAACGGTTTTCCATGTTTGTATGTCTTGTTTGTATTATGTGTTTTGTAAATATTAATTCCTGCAGGTTCAGGGTTCTTTAATCATGTTGGGCTGTACCCACACTCAACTTTTGGCCATAAGTGAGTTTCTTAACGAACCTTTTAACACAGGATGTTATTAGGGCCCAATATTTTCCCTGAGGCCTTCTTTGGCCTCTATTTTTTCCCCTTTTCTATCTCCTTGTATTCCGGGCTCACGTGATGCCAATGGACTGACCCATGCGCCCGTGGGGGTTAACTACTGGAGTAGCCAGTAGCTGTAGGTGCTAAAAGTCACGTACGTGTAAGACTGGACGAGACCTCTCAGCTATAACTGAAAGTAGTAAGTATGTCTGAACTTCTTGAAGGGGTAGGCTACGGGTGAAACCCCTTAGGTTAATACTCATATTGAGAGATACCTCTGATAGGTGAAGGTTTCCGGTAGAGGTGAGTTTAACGACAAAGCCTCTCAACGGATGTGGGCCCACCTCATCAGCAAGATGCTTTCATACCCAATACCGTAGGGGCTGGGTTGTTGAGTTCAGTCCCAAGCGTCCCTCCCGCAAGGTTGTAGGGGTACTCAGGGGCATTTAGGTTTCCACAATTAAACAAATACA
B5: Grusopivirus A (nucleic acid)
chain: TGCCTGAGTAGGATTGTGAATTTAGGTATGAGAGGGTTAGCCAACCCATTCTGAACCATAATAGATACGTCAATCTGAATCCATCTAAATCTATCTCTTAGGCAGTGGTGCTGAAATATTGCAAGCTACTAGGGATAGACGTGATCTGATTCAAGAACCTATCTAATGTGGTGATGAGAAGGCTAGGTTTATCCATAGTAATCCCTTGTTCTGAACAGGCAATGCACATGCTCTAGTAGGATCTCGGGCTCTGCGATTGGCTCTAAACCGACCAATCCAGGTAGAGGCACTAAGTGTAGGACTTGCCAAAATGTATTACATGCTGGTACCGACTCACTAGTCTGGAAACTCCACACTGAAAGTGACTGGGGGGGGCCCCATCACATTTGTGCTACTGCTTGATAGAGTTGCGGCTGGTCAACTTGGATTGGTATAACCAGTTGAA
modifications: lipid formulation; Grusopivirus A
B6: Tremovirus B (nucleic acid)
DNA: TTCAAATGGCCCCTGGGTTGATACCCAGTGGTCATTTGGACACTTTGGTAAGGAGGTGTAATTATCCTTCCCATGTGGAACCTAGTGCTTAGGTTTACTTTATATGTTCTTTGTTTGTCCTTTGTACTTTCTATCGGGCAATCTTGTTGTTCAATACAATATGTATTTGAACTGCCTAAGATAAATTCAGTTTTCAACCAACCCCTCTCTTGGGGTTGTGTCTTTCTTTCTTTCTTATATCCTCTTAAGCTGACTTACTTGCTAATCCGACTCCTCGTCAACGGGAGGGTAAAGCAGTATCACTAGGGTATTGTGATGTAGGAGAAAAAGTAAGTAGAGATAGTGCATGTAACGAAAGTGACTTGGTACTTTAAACTCTCTTAATCCCAAAGTGTGGTATTGGTCATGTTGGAGTAGGCTACGGGTGAAACTCCTTCACATTTAGTAATGTGTTCACACGCTAACGCTACGGTAGATGACAGACTAGGTCTTATTCTCAACGTAGGGGGACGGGTGTATGTTCATGATTAGCCACATATTAAGGTTTTGAGGGGCTGAGTCATATAAGTATGTGCATTAATTTCTGGTACTGGTCCCTGGGGACTGGCCCTTTTCTAGGTTGATTTTAGTTTCCCCAATTTTTAAAAACTAATGAGATTTACGAC
modifications: Tremovirus B

tested on: HEK293 cells; assay type: cell-based, human; details: circular RNA encoding Gluc with the listed IRES (UTR truncated to 675 nt) transfected into HEK293 cells; supernatant after 24 hours

Compared with B1, B2 is lower in “Expression (luminescence from secreted Gluc protein)” value (from here on “Expression”): 1.57E+06 for the first, 2.12E+05 for the second.

Going from B3 to B4, the “Expression” value falls from 4.37E+05 to 1.41E+05.

Compared with B5, B6 is higher in “Expression” value: 1.09E+05 for the first, 1.31E+05 for the second.
